B1: RgPAL: phenylalanine ammonia-lyase derived from yeast Rhodotorula glutinis JN-1, SEQ ID NO: 5, expressed in E. coli (protein, listed as Rhodotorula glutinis)
chain: MAPSVDSIATSVANSLSNGLAGDLRKKTSGAGSLLPTTETTQIDIVERILADAGATDQIKLDGYTLTLGDVVGAARRGRTVKVADSPQIREKIDASVEFLRTQLDNSVYGVTTGFGGSADTRTEDAISLQKALLEHQLCGVLPTSMDGFALGRGLENSLPLEVVRGAMTIRVNSLTRGHSAVRIVVLEALTNFLNHGITPIVPLRGTISASGDLSPLSYIAASITGHPDSKVHVDGQIMSAQEAIALKGLQPVVLGPKEGLGLVNGTAVSASMATLALTDAHVLSLLAQANTALTVEAMVGHAGSFHPFLHDVTRPHPTQIEVARNIRTLLEGSKYAVHHETEVKVKDDEGILRQDRYPLRCSPQWLGPLVSDMIHAHSVLSLEAGQSTTDNPLIDLENKMTHHGGAFMASSVGNTMEKTRLAVALMGKVSFTQLTEMLNAGMNRALPSCLAAEDPSLSYHCKGLDIAAAAYTSELGHLANPVSTHVQPAEMGNQAINSLALISARRTAEANDVLSLLLATHLYCVLQAVDLRAMEFEHTKEFEPMVTDLLKQHFGALATADVEDKVRKSIYKRLQQNNSYDLEQRWHDTFSVATGAVVEALAGNEVSLASLNAWKVACAEKAIALTRTVRDSFWAAPSSASPALKYLSPRTRILYSFVREDVGVKARRGDVYLGKQEVTIGTNVSRIYEAIKDGRIAPVLVKMMA
modifications: RgPAL Polypeptide
B2: nfsA: nitroreductase derived from Escherichia coli, SEQ ID NO: 13, overexpressed in E. coli (protein, listed as Escherichia coli)
chain: MTPTIELICGHRSIRHFTDEPISEAQREAIINSARATSSSSFLQCSSIIRITDKALREELVTLTGGQKHVAQAAEFWVFCADFNRHLQICPDAQLGLAEQLLLGVVDTAMMAQNALIAAESLGLGGVYIGGLRNNIEAVTKLLKLPQHVLPLFGLCLGWPADNPDLKPRLPASILVHENSYQPLDKGALAQYDEQLAEYYLTRGSNNRRDTWSDHIRRTIIKESRPFILDYLHKQGWATR
modifications: nfsA Polypeptide
B3: scFrm2: enzyme (nitroreductase) derived from Saccharomyces cerevisiae, SEQ ID NO:7, expressed in E. coli (protein, listed as Saccharomyces cerevisiae)
chain: MSPTGNYLNAITNRRTIYNLKPELPQGVGLDDVKRTVHVILKNTPTAFNSQVNRAVIIVGDTHKRIWDAVASAMPTAEAKKRPESCRDEAYGSVIFFTDEGPTEKLQRDFPALAAAFPTCAAHTTGAVQIQSWTALELLGLGANLQHYNDYVKSALPQDVPIAWTVQSQLVFGVPTALPEEKTFINNVINVYH
modifications: scFrm2 Polypeptide
B4: nfsB: nitroreductase derived from Escherichia coli, SEQ ID NO:15, overexpressed in E. coli (protein, listed as Escherichia coli)
chain: MDIISVALKRHSTKAFDASKKLTPEQAEQIKTLLQYSPSSTNSQPWHFIVASTEEGKARVAKSAAGNYVFNERKMLDASHVVVFCAKTAMDDVWLKLVVDQEDADGRFATPEAKAANDKGRKFFADMHRKDLHDDAEWMAKQVYLNVGNFLLGVAALGLDAVPIEGFDAAILDAEFGLKEKGYTSLVVVPVGHHSVEDFNATLPKSRLPQNITLTEV
modifications: nfsB Polypeptide
B5: scHbn1: enzyme (nitroreductase) derived from Saccharomyces cerevisiae, SEQ ID NO:9, expressed in E. coli (protein, listed as Saccharomyces cerevisiae)
chain: MSAVATYLKTLTARRTIYALKPELPGEITINDIQSVVQTIIKETPTAFNSQPNRAVILTGETHKKVWDEVTKAIESPAGQKRPASARDEAFGSVIFFTDDKVTEKLKADFPAYAAAFPSFADHTSGAAQINSWVALEAMGLGGHLQHYNGYIKAALPSKIPESWTVQAQLVFGTPAAPPGEKTYIKNDVEIFN
modifications: scHbn1 Polypeptide
B6: cdFLDZ: enzyme derived from Clostridium difficile, SEQ ID NO: 11, expressed in E. coli (protein)
chain: MKISSMFTPIRIGSMTVPNRFVVPPMGNNFANTDGTLSETSKAYYLERALGGFGLITIESSVVDKKAKGGPRKPCLYDDSTIDSFKNVIDACHDAGSKVSIQLQHAGSEGNEKVAGHPLKAASAIPASNGRNTPLAITTEEIYELIESYGDAALRAQKAGADAVEVHCAHGYLVSSFISQRTNKRVDEFGGCFENRMRLPRLIIENIRKKVGNSLAILCRINSTDDVPGGIDVHDSSVIAAYLEDCGIDGLHVSRSIHIHDEYMWAPTTLHAGFSAELVTEIKKAVSIPVITVGRYTEPQFAELMVRQGRCDLVAFGRQSLADPEMPNKAKNGKLDEMIPCIACLQGCVPNMFQGKPIACLANPILGHEAELKPAEISKEVLVVGGGVGGMLAAWVCAKRGHNVTLVEKSEVLGGQMRLAAYPPGKGDITNLVRSYISKCNQYGVKICTNTEATVELIKEKSPDVVIIATGATPLVLPIPGINDSGLIHAVDLLDGKKSCGKKVLVVGGGMVGCEVAAFLGEQEHEVTVIELREEVGADVISEHRKFLMNDFENYNIHTITGAKVSKFYDDGVDYLLTDGTEHDLKGFDSVVLAMGSRNYDPLSEVIKEVVKETYIVGDAVKARRALDATKEAFEVALNI
modifications: Clostridium difficile; cdFLDZ Polypeptide

Key:
[1] = Resting-cell reaction of PAL-producing E. coli, 4-nitrophenylalanine to 4-nitrocinnamic acid; assay type: cell-based, Escherichia coli; conditions: resting cells, 24 hours, 28° C., pH 8.5, 20 mM 4-nitrophenylalanine; versus control Escherichia coli
Experimental: The CamPAL-, LiePAL-, and RgPAL-producing Escherichia coli strains mentioned above were precultured using 3 mL of LB medium containing 40 mg/L kanamycin sulfate at 28° C. for 16 hours with stirring at 300 rpm. 1 mL of this pre-cultured liquid was inoculated to 100 mL of LB medium containing 40 mg/L of kanamycin sulfate, cultured at 30° C. for 4 hours with shaking at 120 rpm, and after the addition of 0.5 mM of IPTG, incubated further for 20 hours. The obtained bacterial cells were washed twice with a reaction buffer (100 mM Tris-HCl buffer, pH 8.5).
The resting cells obtained were suspended in a reaction buffer and reacted at 28° C. with shaking at 300 rpm. 20 mM of 4-nitrophenylalanine was added to the medium every 24 hours while the reaction was continued. The reaction supernatant was periodically collected to quantify 4-nitrophenylalanine and 4-nitrocinnamic acid.
The supernatant was transferred to a centrifuge tube, collected by centrifugation, and the reaction product was quantified using high performance liquid chromatography (HPLC).
(§1) The same experiment was also performed using the host Escherichia coli as a control.

[2] = Deammonase activity of purified enzymes by absorptiometry; assay type: biochemical; conditions: purified recombinant enzyme 2 mg/mL, 50 mM Tris-HCl pH 8.6, 0.3 to 9.6 mM substrate, 380 nm, 10 minutes
Experimental: • Apparatus: BECKMAN COULTER DU800 UV/Vis Spectrophotometer • Amount of enzyme: 2mg/mL • Buffer solution: 50mM Tris-HCl buffer (pH=8.6) • Concentration of substrate: 0.3mM to 9.6mM • Volume: 200μL • Measurement wavelength: From 4-nitrophenylalanine to 380 nm 4-nitrocinnamic acid: From phenylalanine to 305 nm cinnamic acid: • Measurement period: 10 minutes • Measurement temperature: 25° C.
Each of the CamPAL-, LiePAL-, and RgPAL-producing Escherichia coli strains was inoculated to 5 mL of LB medium containing 30 mg/L kanamycin sulfate, and cultured at 28° C. for 16 hours (hereinafter also may be referred to as “preculture”). […]
The enzyme activity was measured and quantified by measuring the absorbance of the reaction product at the absorption wavelength for 10 minutes using an absorptiometer.
Specifically, regarding the deammonase activity for phenylalanine, 2 mg/mL of each of the above enzymes was added to 50 mM Tris-HCl buffer (pH=8.6) containing 0.3 to 9.6 mM phenylalanine to cause reaction, and the change in absorbance at a wavelength of 305 nm resulting from the formation of cinnamic acid was measured for 10 minutes. […]

[3] = Enzyme activities of nfsA and nfsB in cell reactions, 4-nitrocinnamic acid to 4-aminocinnamic acid; assay type: cell-based, Escherichia coli; conditions: 2 g/L 4-nitrocinnamic acid, 2% glycerol, pH 8.0, 37° C., 18 hours
Experimental: Each of the nfsA- and nfsB-producing Escherichia coli strains was precultured using 5 mL of LB medium containing 40 mg/L of streptomycin sulfate at 28° C. for 16 hours with shaking at 300 rpm. 1 mL of this pre-cultured solution was inoculated to 100 mL of TB medium containing 80 mg/L streptomycin sulfate, cultured at 30° C. for 4 hours with shaking at 120 rpm. 0.1 mM IPTG was added, and the culture was further incubated at 30° C. for another 18 hours.
The pH of the culture medium containing the obtained bacterial cells was adjusted to 8.0 by addition of 2N NaOH. 2 g/L of 4-nitrocinnamic acid and 2% final concentration of glycerol were suspended in this culture medium, and the reaction was carried out at 37° C. for 18 hours with shaking at 120 rpm. After the reaction, the reaction solution supernatant was collected to quantify 4-aminocinnamic acid. Specifically, the supernatant was transferred to a centrifuge tube, collected by centrifugation, and the reaction product was quantified using the above HPLC.
The same experiment was also carried out using the host Escherichia coli as a control.

[4] = Resting-cell reaction of scFrm2-, scHbn1-, cdFLDZ-producing E. coli, 4-nitrocinnamic acid to 4-aminocinnamic acid; assay type: cell-based, Escherichia coli; conditions: resting cells, 2.5 mM 4-nitrocinnamic acid, 30° C., 12 hours, pH 7.0; versus control E. coli
Experimental: Each of the scFrm2-, scHbn1-, and cdFLDZ-producing Escherichia coli strains were precultured using 3 mL of LB medium containing 30 mg/L kanamycin sulfate at 28° C. for 16 hours with shaking at 300 rpm. 1 mL of this preculture liquid was inoculated to 100 mL of LB medium containing 30 mg/L kanamycin sulfate, cultured at 30° C. for 4 hours with shaking at 120 rpm, and after 0.1 mM IPTG was added, incubated further at 20° C. for 12 hours. The obtained bacterial cells were washed twice with a reaction buffer (100 mM potassium dihydrogen phosphate (KH2PO4), 1 mM magnesium sulfate (MgSO4), 0.5 mM thiamine chloride, pH 7.0).
The resting cells thus obtained were suspended in a reaction buffer containing 2.5 mM 4-nitrocinnamic acid, and reacted at 30° C. for 12 hours with shaking at 300 rpm. After the reaction, the reaction supernatant was collected to quantify 4-aminocinnamic acid. The supernatant was transferred to a centrifuge tube, collected by centrifugation, and the reaction product was quantified using the above HPLC.
as §1

Row | Molecule | 4-aminocinnamic acid converted from 4-nitrocinnamic acid [3] [g/L] | amount of 4-aminocinnamic acid in the medium supernatant [4] | also measured
1 | B1 | – | – | amount of 4-nitrocinnamic acid in the reaction supernatant [1]: significantly higher than that of the control Escherichia coli; capacity to convert 4-nitrophenylalanine to 4-nitrocinnamic acid [2]: have a capacity to covert 4-nitrophenylalanine to 4-nitrocinnamic acid
2 | B2 | 0.26 | – | –
3 | B3 | – | remarkably increased as compared with the control E. coli | –
4 | B4 | 0.76 | – | –
5 | B5 | – | remarkably increased as compared with the control E. coli | –
6 | B6 | – | remarkably increased as compared with the control E. coli | –

Source: US20210017555A1, “METHOD FOR PRODUCING 4-AMINOCINNAMIC ACID, AND VECTOR AND HOST CELL USED IN SAME” (JAPAN SCIENCE AND TECHNOLOGY AGENCY, priority 2018, published 2021)
